In the nanobody polyreactivity screen of Harvey et al. (2022):

Test: yeast display, Sf9 membrane polyspecificity reagent, FACS + sequencing; frameworks hold sequencing errors
Summary of the method: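 Sorting gates, low and high (top ~1%), were placed on anti-HA fluorescence to track expression and on streptavidin fluorescence to track reagent binding. A clone's polyreactivity label is taken from the gate it came out of. The reagent was 10% biotinylated, detergent-solubilized Sf9 membrane, applied for 1 hour at 4 °C to galactose-induced yeast display cells.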

| Sequence | polyreactivity (PSR sort gate) |
| --- | --- |
| QVQLVESGGGLVQAGGSLRLSCAASGSIFGRNTMGWYRQAPGKERELVAAISSRGTSTYYADSVKGRFTISRDNAKNTVYLQMNSLKPEDTAVYYCAARVYPYNYWGQGTQVTVSS | high polyreactivity |
| QVQLVESGGGLVQAGGSLRLSCAASGSIFGRNTMGWYRQAPGKERELVAAISSSGGSTRYADSVKGRFTISRDNAKITVYLQMNSLKQEDTAVYYCNDRPRTIYVNRKYDYWGQCTQVTVSS | high polyreactivity |
| QVQLVESGGGLVQAGGSLRLSCAASGSIFGRYAKRWYRQAPGKERELVAAISWNGGSTYYADSVKGRFTISRDNAKKTVDLQMNSLKPEDPAVYYCAVLSWWTKLSRRFYYWGQGTQVTVSS | high polyreactivity |
| QVQLVESGGGLVQAGGSLRLSCAASGSIFGRYAMGWYRQAPGKERELVAAIDGGGSTNYADSVKGRFTISRDNAKNTVYVQMNSLKPEDTAVYYCATEAKAYRYYYRTRHYYYWGQGTQVTVSS | low polyreactivity |
| QVQLVESGGGLVQAGGSLRLSCAASGSIFGRYAMGWYRQAPGKERELVAAISWRGGSTYYADSVKGRFTISRDNAKNTVYLQMNRLKPEDTAVYYCAKSGTFYYPRYDYWGQGTQVTVSS | high polyreactivity |
| QVQLVESGGGLVQAGGSLRLSCAASGSIFGRYAMGWYRQAPGKERELVAAISWRGGSTYYADSVKGRFTISRDNAKNTVYLQMNSLKPEDTAVYYCNVPYRSGYSHRYDYWGQGTQVTVSS | high polyreactivity |
| QVQLVESGGGLVQAGGSLRLSCAASGSIFGRYTMGWYRQAPGKERELVAAISSSGGRTYYADSVKGRFTISRDNAKNTVFLQMNSLKPEDTAVYYCNNGYGYEYYWGQGTQVTVSS | low polyreactivity |
| QVQLVESGGGLVQAGGSLRLSCAASGSIFGRYVMGWYRQAPGKERELVARITQSGGSTYYADSVKGRFTISRDNAKNTVYLQMNSLKPEDTAVYYCAAATSWWWLYYWGQGTQVTVSS | high polyreactivity |
| QVQLVESGGGLVQAGGSLRLSCAASGSIFGSNAMGWYRQAPGKERELVASITSSGGSTHYADSVKGRFTISRDNAKNTVYLQMNSLKPEDTAVYYCATRAYGYYRWLYDYWGQGTQVTVSS | low polyreactivity |
| QVQLVESGGGLVQAGGSLRLSCAASGSIFGSNMGWYRQAPGKERELVAAISSRGGRTYYADSVKGRFTISRDNAKNTVYLQMNSLKPEDTAVYYCATRTFRGCRGYEYWGQGTQVTVSS | high polyreactivity |
| QVQLVESGGGLVQAGGSLRLSCAASGSIFGSYAMGWSRQAPGKERELVAAISKSGGNTYYADSVKGRFTISRDNAKNTVYLQMNSLKPEDTAVYYCAAYGFYRWRGYDYWGQGTQVTVSS | high polyreactivity |
| QVQLVESGGGLVQAGGSLRLSCAASGSIFGSYAMGWYRQAPGKEREFVAGIDQSGSSTYYADSVKGRFTISRDNAKNTVYLQMNSLKPEDTAVYYCNAVWYFYSTYRKYYYWGQGTQVTVSS | high polyreactivity |
| QVQLVESGGGLVQAGGSLRLSCAASGSIFGSYAMGWYRQAPGKERELVAAISGSGGRTYYADSVKGRFTISRDNAKNTVYFQMNSLKPEVTAVYYCAAAYPRVTYKYGYYWGLGTQVTVSS | high polyreactivity |
| QVQLVESGGGLVQAGGSLRLSCAASGSIFGSYAMGWYRQAPGKERELVADISRRGSSTYYADSVKGRFTISRDNAKNTVYLQMNSLKPEDTAVYYCNKVFARSLSSRYQAYDYWGQGTQVNVSS | high polyreactivity |
| QVQLVESGGGLVQAGGSLRLSCAASGSIFGSYAMGWYRQAPGKERELVAVITSASTNYADSVKGRFTISRDNAKNTVYLQMNSLKPEDTAVYYCNAALSHDFWNYRLGYWGQGTQVTVSS | low polyreactivity |
| QVQLVESGGGLVQAGGSLRLSCAASGSIFGSYAMGWYRQATGNERELVAAIRSSASTYYADSVKGRFTISRDNAKNTVYLQMYSLKPEDTAVYYCAAKFTSYGRSRYYSWGQGTQVTVSS | high polyreactivity |
| QVQLVESGGGLVQAGGSLRLSCAASGSIFGSYTMGWYRQAPGKERELVAAISLGGGSTYYADSVKGRFSISRDNAKNTVYLQMNSLKPEDTAVYYCAAGFTYPYDYWGQGTQVTVSS | low polyreactivity |
| QVQLVESGGGLVQAGGSLRLSCAASGSIFGSYVMVWYRQAPGKERELVAAISKSGGRTYYADSVKGRFTISRDNAKNTVYLQMKSLKPEDTAVYYCAVLPRVKDGTGGDYWGQGTQVTVSS | high polyreactivity |
| QVQLVESGGGLVQAGGSLRLSCAASGSIFGTNAMGWYRQAPGKERELVAAINSGGSTNYADSVKGRFTISRDNAKNTVYLQMNSLKPEDTAVYYCAADEGLWSPSRNAYDYDYWGQGTQVSVSS | low polyreactivity |
| QVQLVESGGGLVQAGGSLRLSCAASGSIFGTNGMGWYRQAPGKERELVAAITRRGGSTYADSVKGRFTISRDNAKNTVYLQMNSLKPEDTAVYYCAAQGYLRLRTHFNYWGQGTQVTVSS | low polyreactivity |
| QVQLVESGGGLVQAGGSLRLSCAASGSIFGTYAMGWYRPAPGNERELVAAITWRDDGNTYYADSVQGRFTISRDNAKNTVYLQMNSLQPEDTAVYYGAASRAYGKDAYRGYSYRYDYWGQGTQGTVSS | high polyreactivity |

| Sequence | polyreactivity (PSR sort gate) |
| --- | --- |
| QVQLVESGGGLVQAGGSLRLSCAASGSIFGTYAMGWYRQAPGKERELVAAITSSGGSTYYADSVKGRFTISRDNAKNTVYLQMNSLKPEDTAVYYCAAYRRIRVGVPVRTYYYWGQGTQVTVSS | high polyreactivity |
| QVQLVESGGGLVQAGGSLRLSCAASGSIFGVNALGWYRQAPGKERELVASITGGDSTNYADSVKGRFTISRDNAKNTVYLQMNSLKPEDTAFYYCAKDHYYRYEEGDYWGQGTQVTVSS | low polyreactivity |
| QVQLVESGGGLVQAGGSLRLSCAASGSIFGVNVMGWYRQAPGKERELVASISGGGSTDYADSVKGRFTISRDNAKNTVYLQMNSLKPEDTAVYYCNAKYWWSNYYWGQGTQVTVSS | low polyreactivity |
| QVQLVESGGGLVQAGGSLRLSCAASGSIFGVYAMGWYRQAPGKEREFVASISWSAGSTYYADSVKGRFTISRDNAKNTVYLQMNSLKPEDTAVYYCAARVWRYPYYWGQGTQVTVSS | high polyreactivity |
| QVQLVESGGGLVQAGGSLRLSCAASGSIFGVYAMGWYRQAPGKERELVAAISSRGSSTYYADSVKGRFTISRDNAKNTVYLQMNSLKPEDTAVYYCAARPGIRSYPPGYGYWGQGTQVTVSS | high polyreactivity |
| QVQLVESGGGLVQAGGSLRLSCAASGSIFGVYAMGWYRQAPGKERELVATISRSGAITYYADSVKGRFTISRDNAKNTVYLQMNSLKPEDTAVYYCAADFFSRDWGQGTQVTVSS | low polyreactivity |
| QVQLVESGGGLVQAGGSLRLSCAASGSIFGVYTMGWYRQAPGKERELVAAISRNGGSTYYEDSVKGRFTISRDNAKNTVYLQMNSLKPEDTAVYYCATSTSRRYGSRHNYWGQGTQVTVSS | high polyreactivity |
| QVQLVESGGGLVQAGGSLRLSCAASGSIFGWYAMGWYRQAPGKEREFVAAISGGSTYYADSVKGRFTISRDNAKNTVYLQMNSLKPEDTAVYYCNAQGYYFYPFDYWGQGTQVTVSS | high polyreactivity |
| QVQLVESGGGLVQAGGSLRLSCAASGSIFGWYAMGWYRQAPGKERELVAAAIDYRDDSTYYADSVKGRFTISRDIAKNTVYLQMNSLKPEDTAVYYCAAEKDGDWRGYDYWGQGTQVTVSS | low polyreactivity |
| QVQLVESGGGLVQAGGSLRLSCAASGSIFGWYAMGWYRQAPGKERELVAAISSSDGSTYYADSVKGRFTISRDNANNTVYFPMNSLKPEDTEVYYCATDYAFTYAQYDYWGQGTQVTVSS | low polyreactivity |
| QVQLVESGGGLVQAGGSLRLSCAASGSIFGYAMGWYRQAPGKERELVAAIRWGGGSTYYADSVKGRFTISRDNAKYNVYLQMNSLKPEDTAVYYCAARVGRQWYDYWGQGTQVTVSS | high polyreactivity |
| QVQLVESGGGLVQAGGSLRLSCAASGSIFGYKAMGWYRQAPRKERELVAAIRSSDSRTHYADSVKGRFTISRDNAKNTVYLQMNRLKPEDTAVYYCAAVKRRPGHYLYDYWGQGTQVTVSS | low polyreactivity |
| QVQLVESGGGLVQAGGSLRLSCAASGSIFGYNAMGWSRQAPGKERELVAGITSGTSTNYADSVKGRFTISRDNAKNTVYLQMNSLKPEDTEVYYCARTSYRFYRKRYYWGQGTQVTVSS | high polyreactivity |
| QVQLVESGGGLVQAGGSLRLSCAASGSIFGYNAMGWYRQAPGKERELVAAISRSGGRTYYADSVKGRFTISRDNAKNTVYLQMNSLKPEDTAVYDCAAPVWRYYRGKTFDYWGQGTQVTVSS | high polyreactivity |
| QVQLVESGGGLVQAGGSLRLSCAASGSIFGYNTMGLYRKAPGKERELVAAISYRGGSTYADSVKGRFTISRDNAKNTVYLQMNSLKPVDTAVYYCDKRSIVGYRYSGYDYCGQGTQVTVSS | high polyreactivity |
| QVQLVESGGGLVQAGGSLRLSCAASGSIFGYNVMGWYRQAPGKEREFVAAITYRGGGTYADSVKGRFTISRDNAKNTVYLQMNSLKPEDTAVYYCAARWYGWRSRRYDYWGQGTQVTVSS | high polyreactivity |
| QVQLVESGGGLVQAGGSLRLSCAASGSIFGYYAKGWYRQAPGKERELVAAIDSGGGSTYYADSVRGRVTISRDNAKNTVYIQMNRLKPEDTAVYYCAAVSYSYPSLLYEYWGQGTQVTVSS | low polyreactivity |
| QVQLVESGGGLVQAGGSLRLSCAASGSIFGYYAMGWSRQAPGKERELVASISSTGSTYYADSVKGRFTISRDNAKNTVSLQMNSLKPEDTAVYYCAADTLIFPWGFESWGQGTQVTVSS | high polyreactivity |
| QVQLVESGGGLVQAGGSLRLSCAASGSIFGYYAMGWYIQAPGKERELVAAISWSGGSTYYADSVKGRFTISRDNAKNTVYLQMNSLKPEDTAVYYCNAYTRRGGHDYWGQGTQVTVSS | high polyreactivity |
| QVQLVESGGGLVQAGGSLRLSCAASGSIFGYYAMGWYRQAPGKERELVAAIRGSSGSTYYADSVKGRFTISRDNAKNTVYLQMNSLKPEDTAVYYCAADYRTYVYVYGFRHFDYWGQGTQVTVSS | low polyreactivity |
